Measurements reported in publication PMC12804074.
One block for each substance: values may come before it.

Legend:
[1] = target: (NFS1–ISD11–ACP–ISCU2)2 complex (human) (UniProt Q9HD34); test: ITC
[2] = target: FDX2ALC (ferredoxin-2 labelled with ALC 480) (human) (UniProt Q6P4F2); test: flow-induced dispersion analysis
[3] = target: FXNALC (frataxin labelled with ALC 480) (human) (UniProt Q16595); test: flow-induced dispersion analysis
[4] = target: cysteine desulfurase complex (NFS1–ISD11–ACP)2 (human) (UniProt Q9HD34); test: ITC

ferredoxin-2 (FDX2), wild type, sequence (Q6P4F2 53-183): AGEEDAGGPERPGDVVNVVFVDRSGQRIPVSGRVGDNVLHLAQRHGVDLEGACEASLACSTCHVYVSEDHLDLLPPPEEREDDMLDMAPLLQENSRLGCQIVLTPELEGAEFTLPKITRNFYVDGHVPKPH
FDX2ALC (ferredoxin-2 labelled with ALC 480) (human), sequence (Q6P4F2 53-183): as above

KD of the tight-binding exothermic mode [1]: 102 nM
Substance: ferredoxin-2 (FDX2), wild type (from UniProt Q6P4F2 53-183) (natural protein)

Kd [2]: 16000 nM
Substance: (NFS1–ISD11–ACP–ISCU2)2 complex (from UniProt Q9HD34 1-91; O14561 69-156; Q9H1K1-1 35-167)
Kd [3]: 102 nM

Kd [1]: 146 nM
Substance: frataxin (FXN) (from UniProt Q16595 42-210) (natural protein)

Kd [4]: 39 nM
Substance: FDX2 D179A (from UniProt Q6P4F2 53-183) (natural protein)
